Assay results as given in article doi:10.1101/2022.06.19.496727.

Target: 8His-Smc3 with the J-head reporter cysteine (wild type trimer) (S. cerevisiae) (UniProt P47037)
Test: cross-linking

- percent of molecules cross-linked: 70%
Substance: Smc1 with the J-head reporter cysteine (wild type trimer) (from UniProt P32908 1-1225) (natural protein)
